Several values for one entry are separate records, joined by “and”; a condition that tells them apart may be missing. Equal values may be shown once.
Experiments:
[1] = molecular target: recombinant hAα392-610 fragment corresponding to the full-length human fibrinogen αC-domain (human); experiment: AUC
[2] = molecular target: recombinant hAα392-610 fragment corresponding to the full-length human fibrinogen αC-domain (human); experiment: SEC
[3] = molecular target: recombinant human hAα425-503 fragment, truncated variant of the human fibrinogen αC-domain (human); experiment: AUC
[4] = molecular target: recombinant human hAα425-503 fragment, truncated variant of the human fibrinogen αC-domain (human); experiment: SEC
[5] = molecular target: recombinant bAα374-568 fragment corresponding to the full-length bovine fibrinogen αC-domain (bovine); experiment: AUC
[6] = molecular target: recombinant bAα374-568 fragment corresponding to the full-length bovine fibrinogen αC-domain (bovine); experiment: SEC

Work on “recombinant hAα392-610 fragment corresponding to the full-length human fibrinogen αC-domain (domain or fragment)” yielded a Ka [1] of 83200 M⁻¹, a Kd [1] of 12 µM and a stoichiometry N [1] of 11.3. It also gave an oligomers (%) at 1.9 mg/mL, 0.15 M NaCl [2] of 15.4%, an oligomers (%) at 3.8 mg/mL, 0.15 M NaCl [2] of 32% and an oligomers (%) at 4.0 mg/mL, 2.0 M NaCl [2] of 58.5%.
For “recombinant human hAα425-503 fragment, truncated variant of the human fibrinogen αC-domain (domain or fragment)”, the Kd [3] was 1140 µM, the oligomers (%) at 1.6 mg/mL, 2.0 M NaCl [4] was 43.6% and the oligomers (%) at 3.2 mg/mL, 0.15 M NaCl [4] was 1.7%. For the same substance, the oligomers (%) at 3.2 mg/mL, 1.0 M NaCl [4] was 26.2%, the oligomers (%) at 6.3 mg/mL, 0.15 M NaCl [4] was 6.6% and the stoichiometry N [4] was 5 and 6.
Substance “recombinant bAα374-568 fragment corresponding to the full-length bovine fibrinogen αC-domain (domain or fragment)” has a Ka [5] of 26100 M⁻¹, a Kd [5] of 38.3 µM and an oligomers (%) at 1.8 mg/mL, 0.15 M NaCl [6] of 9.5%. It also gave an oligomers (%) at 3.7 mg/mL, 0.15 M NaCl [6] of 27.2% and an oligomers (%) at 3.8 mg/mL, 2.0 M NaCl [6] of 54.4%.
